The experiment concerns the target purified TslA lipase domain (N-terminal domain of SAOUHSC_00406) (S. aureus) (UniProt Q2G0W8). Nature of the experiment: ITC; 30 uM TslA in the cell, 300 uM TilA in the syringe; 20 mM HEPES pH 7.5, 150 mM NaCl, 25 °C; Microcal PEAQ-ITC. (In general: ITC needs no label: the signal is the heat of the interaction.)

B1: purified TilA lacking its signal sequence, His tag removed (SAOUHSC_00405) (natural protein)
chain: CGNMKDEQKKEEQTNKTDSKEEQIKKSFAKTLDMYPIKNLEDLYDKEGYRDGEFKKGDKGTWTILTGFSKSNKPGVLDDEGMVLYLNRNTKKATGYYFVNKVYDDISKNHNEKKYRVELKNNKIVLLDNVEDKKLKQKIENFKFFSQYADFKDLKNYQDGNITTNENVPSYEAQYKMNNSDKNVKKLREIYPITTNNSPNLKLYIDGDIKGSSVGYKKIEYKFSKDKGQETTLRDYLNFGPSEGENVE
As a reminder, the Kd is the constant that tells how readily two partners part at equilibrium. What is called stoichiometry N is the number of molecules, sites or subunits per partner or assembly. The molecule B1 displayed an equilibrium dissociation constant (Kd) of 14.2 nM, a dH of -20.5 kcal/mol and a stoichiometry N of 0.88.

These data come from PMC10730906.
